Experimental data as given in US20200291112A1 (Memorial Sloan Kettering, published 2020).

T1: Human GPA33 (Novoprotein), recombinant protein immobilized on CM5 chips (human, UniProt Q99795 22-235)
T1 construct: also called GPA33 recombinant protein; Human Glycoprotein A33
T1 sequence: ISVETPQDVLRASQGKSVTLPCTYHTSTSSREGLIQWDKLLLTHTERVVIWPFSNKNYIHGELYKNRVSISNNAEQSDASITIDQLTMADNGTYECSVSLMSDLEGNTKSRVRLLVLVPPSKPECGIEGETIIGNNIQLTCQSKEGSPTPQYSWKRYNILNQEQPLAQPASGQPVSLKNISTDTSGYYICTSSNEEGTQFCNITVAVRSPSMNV


Experiments:
[1] = target: T1, Human GPA33 (Novoprotein), recombinant …; assay: SPR (Biacore T100), GPA33 recombinant protein immobilized on CM5 chip, IgG1 flowed over, 25 °C, 1:1 binding model
Method: (§1) SPR analysis. Human GPA33 (Novoprotein, Summit, N.J.) was immobilized on CM5 chips. Five concentrations of 2-fold serially diluted huA33 IgG1 or huA33-BsAbs (starting at 20 nM) were flowed over the chip using a Biacore™ T100 system (GE Healthcare, Chicago, Ill.). Binding kinetics of huA33 were measured at 25° C. and binding kinetics of huA33-BsAbs were measured at both 25° C. and 37° C. The sensorgrams were fitted with 1:1 binding model for both to derive kinetic parameters.

[2] = target: T1, Human GPA33 (Novoprotein), recombinant …; assay: SPR, GPA33 immobilized on CM5 chip, clone in huA33-BsAb format; temperature not given for this table; the KD column head prints no unit
[3] = target: T1, Human GPA33 (Novoprotein), recombinant …; assay: SPR, KD of the parental huA33-BsAb over KD of the clone
Method: as §1

Binder	Kd [1] [nM]	koff [1] [s⁻¹]	kon [1] [M⁻¹ s⁻¹]	Kd [2] [nM]	Fold difference/Parental [3] [fold]
chimeric chA33-IgG1 (antibody, V domains shown, Chimeric antibody with murine A33 variable domains and a human IgG1 constant region; also called chimeric A33; 3A3-chA33) VH: EVKLVESGGGLVKPGGSLKLSCAASGFAFSTYDMSWVRQTPEKRLEWVATISSGGSYTYYLDSVKGRFTISRDSARNTLYLQMSSLRSEDTALYYCAPTTVVPFAYWGQGTLVTVSA VL: DIVMTQSQKFMSTSVGDRVSITCKASQNVRTVVAWYQQKPGQSPKTLIYLASNRHTGVPDRFTGSGSGTDFTLTISNVQSEDLADYFCLQHWSYPLTFGSGTKLEVKR	0.31	0.000628	2.03e+06	–	–
affinity-matured clone 31 in huA33-BsAb format (bispecific antibody, human IgG1, kappa, N297A) heavy: not shown light: DIQMTQSQSSLSTSVGDRVTITCKASQNVRTVVAWYQQKPGKSPKTLIYLASNRHTGVPSRFSGSGSGTEFTLTISNVQPEDFADYFCLQHWSYPLTFGSGTKLEIKRTVAAPSVFIFPPSDEQLKSGTASVVCLLNNFYPREAKVQWKVDNALQSGNSQESVTEQDSKDSTYSLSSTLTLSKADYEKHKVYACEVTHQGLSSPVTKSFNRGECTSGGGGSGGGGSGGGGSQVQLVQSGGGVVQPGRSLRLSCKASGYTFTRYTMHWVRQAPGKCLEWIGYINPSRGYTNYNQKFKDRFTISRDNSKNTAFLQMDSLRPEDTGVYFCARYYDDHYSLDYWGQGTPVTVSSGGGGSGGGGSGGGGSGGGGSGGGGSGGGGSDIQMTQSPSSLSASVGDRVTITCSASSSVSYMNWYQQTPGKAPKRWIYDTSKLASGVPSRFSGSGSGTDYTFTISSLQPEDIATYYCQQWSSNPFTFGCGTKLQITR	–	–	–	0.0387	4.3
affinity-matured clone 48 in huA33-BsAb format (bispecific antibody, human IgG1, kappa, N297A) heavy: not shown light: DIQMTQSQSSLSTSVGDRVTITCKASQNVRTVVAWYQQKPGKSPKTLIYLASDRHTGVPSRFSGSGSGTEFTLTISNVQPEDFADYFCLQYWSYPLTFGSGTKLEIKRTVAAPSVFIFPPSDEQLKSGTASVVCLLNNFYPREAKVQWKVDNALQSGNSQESVTEQDSKDSTYSLSSTLTLSKADYEKHKVYACEVTHQGLSSPVTKSFNRGECTSGGGGSGGGGSGGGGSQVQLVQSGGGVVQPGRSLRLSCKASGYTFTRYTMHWVRQAPGKCLEWIGYINPSRGYTNYNQKFKDRFTISRDNSKNTAFLQMDSLRPEDTGVYFCARYYDDHYSLDYWGQGTPVTVSSGGGGSGGGGSGGGGSGGGGSGGGGSGGGGSDIQMTQSPSSLSASVGDRVTITCSASSSVSYMNWYQQTPGKAPKRWIYDTSKLASGVPSRFSGSGSGTDYTFTISSLQPEDIATYYCQQWSSNPFTFGCGTKLQITR	–	–	–	0.00329	51
affinity-matured clone 49 in huA33-BsAb format (bispecific antibody, human IgG1, kappa, N297A) heavy: not shown light: DIQMTQSQSSLSTSVGDRVTITCKASQNVRTLVAWYQQKPGKSPKTLIYLASNRHTGVPSRFSGSGSGTEFTLTISNVQPEDFADYFCLQHWSYPLTFGSGTKLEIKRTVAAPSVFIFPPSDEQLKSGTASVVCLLNNFYPREAKVQWKVDNALQSGNSQESVTEQDSKDSTYSLSSTLTLSKADYEKHKVYACEVTHQGLSSPVTKSFNRGECTSGGGGSGGGGSGGGGSQVQLVQSGGGVVQPGRSLRLSCKASGYTFTRYTMHWVRQAPGKCLEWIGYINPSRGYTNYNQKFKDRFTISRDNSKNTAFLQMDSLRPEDTGVYFCARYYDDHYSLDYWGQGTPVTVSSGGGGSGGGGSGGGGSGGGGSGGGGSGGGGSDIQMTQSPSSLSASVGDRVTITCSASSSVSYMNWYQQTPGKAPKRWIYDTSKLASGVPSRFSGSGSGTDYTFTISSLQPEDIATYYCQQWSSNPFTFGCGTKLQITR	–	–	–	0.022	7.6
affinity-matured clone 32 in huA33-BsAb format (bispecific antibody, human IgG1, kappa, N297A) heavy: not shown light: DIQMTQSQSSLSTSVGDRVTITCKASQNVRTVVAWYQQKPGKSPKTLIYLASNRHTGVPSRFSGSGSGTEFTLTISNVQPEDFADYFCLQYWSYPLTFGSGTKLEIKRTVAAPSVFIFPPSDEQLKSGTASVVCLLNNFYPREAKVQWKVDNALQSGNSQESVTEQDSKDSTYSLSSTLTLSKADYEKHKVYACEVTHQGLSSPVTKSFNRGECTSGGGGSGGGGSGGGGSQVQLVQSGGGVVQPGRSLRLSCKASGYTFTRYTMHWVRQAPGKCLEWIGYINPSRGYTNYNQKFKDRFTISRDNSKNTAFLQMDSLRPEDTGVYFCARYYDDHYSLDYWGQGTPVTVSSGGGGSGGGGSGGGGSGGGGSGGGGSGGGGSDIQMTQSPSSLSASVGDRVTITCSASSSVSYMNWYQQTPGKAPKRWIYDTSKLASGVPSRFSGSGSGTDYTFTISSLQPEDIATYYCQQWSSNPFTFGCGTKLQITR	–	–	–	0.00564	29.7
affinity-matured clone 56 in huA33-BsAb format (bispecific antibody, human IgG1, kappa, N297A) heavy: not shown light: DIQMTQSQSSLSTSVGDRVTITCKASQNVRTLVAWYQQKPGKSPKTLIYLASNRHTGVPSRFSGSGSGTEFTLTISNVQPEDFADYFCLQYWSYPLTFGSGTKLEIKRTVAAPSVFIFPPSDEQLKSGTASVVCLLNNFYPREAKVQWKVDNALQSGNSQESVTEQDSKDSTYSLSSTLTLSKADYEKHKVYACEVTHQGLSSPVTKSFNRGECTSGGGGSGGGGSGGGGSQVQLVQSGGGVVQPGRSLRLSCKASGYTFTRYTMHWVRQAPGKCLEWIGYINPSRGYTNYNQKFKDRFTISRDNSKNTAFLQMDSLRPEDTGVYFCARYYDDHYSLDYWGQGTPVTVSSGGGGSGGGGSGGGGSGGGGSGGGGSGGGGSDIQMTQSPSSLSASVGDRVTITCSASSSVSYMNWYQQTPGKAPKRWIYDTSKLASGVPSRFSGSGSGTDYTFTISSLQPEDIATYYCQQWSSNPFTFGCGTKLQITR	–	–	–	0.0243	6.9
affinity-matured clone 53 in huA33-BsAb format (bispecific antibody, human IgG1, kappa, N297A) heavy: not shown light: DIQMTQSQSSLSTSVGDRVTITCKASQNVRTVVAWYQQKPGKSPKTLIYLASNRHTGVPSRFSGSGSGTEFTLTISNVQPEDFADYFCLQYWSYPLTFGSGTKLEIKRTVAAPSVFIFPPSDEQLKSGTASVVCLLNNFYPREAKVQWKVDNALQSGNSQESVTEQDSKDSTYSLSSTLTLSKADYEKHKVYACEVTHQGLSSPVTKSFNRGECTSGGGGSGGGGSGGGGSQVQLVQSGGGVVQPGRSLRLSCKASGYTFTRYTMHWVRQAPGKCLEWIGYINPSRGYTNYNQKFKDRFTISRDNSKNTAFLQMDSLRPEDTGVYFCARYYDDHYSLDYWGQGTPVTVSSGGGGSGGGGSGGGGSGGGGSGGGGSGGGGSDIQMTQSPSSLSASVGDRVTITCSASSSVSYMNWYQQTPGKAPKRWIYDTSKLASGVPSRFSGSGSGTDYTFTISSLQPEDIATYYCQQWSSNPFTFGCGTKLQITR	–	–	–	0.0175	9.6
affinity-matured clone 57 in huA33-BsAb format (bispecific antibody, human IgG1, kappa, N297A) heavy: not shown light: DIQMTQSQSSLSTSVGDSVTITCKASQNVRTVVAWYQQKPGKSPKTLIYLASNRHTGVPSRFSGSGSGTEFTLTISNVQPEDVADYFCLQYWSYPLTFGSGTKLEIKRTVAAPSVFIFPPSDEQLKSGTASVVCLLNNFYPREAKVQWKVDNALQSGNSQESVTEQDSKDSTYSLSSTLTLSKADYEKHKVYACEVTHQGLSSPVTKSFNRGECTSGGGGSGGGGSGGGGSQVQLVQSGGGVVQPGRSLRLSCKASGYTFTRYTMHWVRQAPGKCLEWIGYINPSRGYTNYNQKFKDRFTISRDNSKNTAFLQMDSLRPEDTGVYFCARYYDDHYSLDYWGQGTPVTVSSGGGGSGGGGSGGGGSGGGGSGGGGSGGGGSDIQMTQSPSSLSASVGDRVTITCSASSSVSYMNWYQQTPGKAPKRWIYDTSKLASGVPSRFSGSGSGTDYTFTISSLQPEDIATYYCQQWSSNPFTFGCGTKLQITR	–	–	–	0.0156	10.7
